Numbering of substitutions follows the chain as printed.
Key:
[1] = target: T1, human CD137, full length, on cells (human, UniProt Q07011 24-255); test: cell-based or functional assay
[2] = target: T1, human CD137, full length, on cells; test: cell-based or functional assay; remark: listed apart in the source
[3] = target: T1, human CD137, full length, on cells; test: cell-based or functional assay; remark: listed apart in the source
[4] = target: T1, human CD137, full length, on cells; test: flow cytometry on CD137low DO11.10 cells (ABC 14,208), anti-human IgG-PE detection, geometric mean PE
Method: (§1) A range of DO11.10 cells expressing different levels of CD137 were produced as described in Example 3.5. To determine the relative expression of CD137 in each cell line, the antibody binding capacity (ABC) was determined according to manufacturer's protocol (Quantum™ Simply Cellular® #816 Bangs Labs).
(§2) All antibodies tested were diluted in FACS buffer in 120 μl. DO11.10 cells were then centrifuged, supernatant removed and cells resuspended in 100 μl of each antibody dilution and incubated at 4° C. for 45 min. Cells were washed twice by centrifugation with 150 μl FACS buffer, resuspended in 100 μl containing goat anti-human IgG (γ-chain specific) F (ab′) 2 fragment-R-Phycoerythrin antibody (Sigma, P8047) diluted 1:1000 in FACS buffer and incubated at 4° C. for 45 min. The cells were washed once with 150 μl FACS buffer and then with 150 μl DPBS, resuspended in 150 μl DPBS containing DAPI (Biotium, 40043) at 1:10.000 and read on the BDCantoll or iQue (Intellicyt). Data was analysed using FlowJo v10 to determine the signal geometric mean for PE for live cells in each well.

[5] = target: T1, human CD137, full length, on cells; test: flow cytometry on CD137int DO11.10 cells (ABC 404,597), anti-human IgG-PE detection, geometric mean PE
Method: as §1, §2

[6] = target: T1, human CD137, full length, on cells; test: flow cytometry on CD137int/low DO11.10 cells (ABC 143,065), anti-human IgG-PE detection, geometric mean PE
Method: as §1, §2

[7] = target: T1, human CD137, full length, on cells; test: cell-based or functional assay; remark: listed apart in the source
hCD137-mFc-Avi = target: T2, hCD137-mFc-Avi (human; mouse, UniProt Q07011 24-186, one biotin on the Avi sequence of each monomer (BirA); unbiotinylated in the SPR of Example 5.6); test: SPR (Biacore), mAb2 captured by anti-human Fab, antigen in solution, 1:1 Langmuir
T2 construct: Made in-house in HEK293-6E; also called human CD137-mFc-Avi; dimeric human CD137; not shown: mouse IgG2a Fc domain (mIgG2a Fc)
T2 sequence (Q07011 24-186): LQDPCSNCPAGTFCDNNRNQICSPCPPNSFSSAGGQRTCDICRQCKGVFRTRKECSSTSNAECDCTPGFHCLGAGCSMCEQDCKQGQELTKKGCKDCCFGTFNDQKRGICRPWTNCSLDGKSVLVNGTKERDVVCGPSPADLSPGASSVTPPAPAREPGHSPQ
Method: (§3) An anti-human Fab capture antibody was immobilised on all four flow cells of a CM5 series S chip (GE Healthcare #BR-1005-30) to an average surface density of 6000 RU following the manufacturer's recommendations (GE Healthcare, human Fab capture Kit, #28958325). IEach mAb² was captured to approximately 150 RU by injecting a 3 μg/ml solution of mAb² diluted in HBS-EP+ buffer (GE Healthcare #BR1006-69) for 60 seconds at 30 μl/min. Then different concentrations of human, cyno or mouse CD137 antigen (unbiotinylated human, cyno or mouse CD137-mFc-Avi or human CD137-Avi-His) in HBS-EP+ buffer were flowed over the chip for 3 min at 60 μl/min and then allowed to dissociate for 10 minutes. After each antigen concentration the chip was regenerated by infecting 10 mM glycine pH 2.1 at a flow rate of 30 μl/min for 30 seconds. Buffer HBS-EP+ was injected before the highest concentration of antigen and after the lowest concentration of antigen for reference subtraction, and one of the concentrations at random was repeated twice. The binding kinetics were fit with a 1:1 Langmuir model to generate equilibrium binding constants (KD) for each sample. Data analysis was performed with BiaEvaluation software version 3.2.

cCD137-mFc-Avi = target: T3, cCD137-mFc-Avi (cynomolgus; mouse, one biotin on the Avi sequence of each monomer (BirA); unbiotinylated in the SPR of Example 5.6); test: as above
T3 construct: also called cyno CD137-mFc-Avi; dimeric cynomolgus CD137; not shown: mouse IgG2a Fc domain (mIgG2a Fc)
T3 chain: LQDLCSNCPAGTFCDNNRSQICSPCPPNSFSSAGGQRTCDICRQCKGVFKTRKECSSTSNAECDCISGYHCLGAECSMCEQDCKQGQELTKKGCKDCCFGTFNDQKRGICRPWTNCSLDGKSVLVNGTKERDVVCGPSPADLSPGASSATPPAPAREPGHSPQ
Method: as §3

[8] = target: T1, human CD137, full length, on cells; test: flow cytometry on CD137high DO11.10 cells (ABC 1,206,283), anti-human IgG-PE detection, geometric mean PE
Method: as §1, §2

T1 sequence (Q07011 24-255): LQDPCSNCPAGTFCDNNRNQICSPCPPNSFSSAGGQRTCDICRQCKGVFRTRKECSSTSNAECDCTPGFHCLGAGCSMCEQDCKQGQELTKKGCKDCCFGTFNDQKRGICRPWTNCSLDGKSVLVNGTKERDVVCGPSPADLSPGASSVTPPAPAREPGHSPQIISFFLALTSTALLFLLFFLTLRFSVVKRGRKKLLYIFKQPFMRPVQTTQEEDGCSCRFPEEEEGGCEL

B1: G1-AA/20H4.9 (antibody, V domains shown)
VH: QVQLQQWGAGLLKPSETLSLTCAVYGGSFSGYYWSWIRQSPEKGLEWIGEINHGGYVTYNPSLESRVTISVDTSKNQFSLKLSSVTAADTAVYYCARDYGPGNYDWYFDLWGRGTLVTVSS
VL: EIVLTQSPATLSLSPGERATLSCRASQSVSSYLAWYQQKPGQAPRLLIYDASNRATGIPARFSGSGSGTDFTLTISSLEPEDFAVYYCQQRSNWPPALTFGGGTKVEIKR
IL-2 release, DO11.10.hCD137 T cell activation assay: EC50 [1]: 0.26 nM | hIL-2 release, primary human CD8+ T cells, 20H4.9 (row without XL): EC50 [2]: 0.89 nM | hIL-2 release, primary human CD8+ T cells, 20H4.9 + XL (anti-hCH2): EC50 [2]: 0.5 nM | IL-2 release, human CD137 DO11.10 T cell activation assay, Protein L: +XL EC50 [3]: 0.82 nM | EC50 (read off the curve) [4]: ~0.1 nM | EC50 (read off the curve) [5]: ~0.1 nM | EC50 (read off the curve) [6]: ~0.1 nM

B2: FS22-172/HelD1.3 (bispecific antibody, human IgG1, kappa)
heavy: QVQLQESGPGLVRPSQTLSLTCTVSGSTFSGYGVNWVRQPPGRGLEWIGMIWGDGNTDYNSALKSRVTMLVDTSKNQFSLRLSSVTAADTAVYYCARERDYRLDYWGQGSLVTVSSASTKGPSVFPLAPSSKSTSGGTAALGCLVKDYFPEPVTVSWNSGALTSGVHTFPAVLQSSGLYSLSSVVTVPSSSLGTQTYICNVNHKPSNTKVDKKVEPKSCDKTHTCPPCPAPELLGGPSVFLFPPKPKDTLMISRTPEVTCVVVDVSHEDPEVKFNWYVDGVEVHNAKTKPREEQYNSTYRVVSVLTVLHQDWLNGKEYKCKVSNKALPAPIEKTISKAKGQPREPQVYTLPPSRDELRKYYPPYNQVSLTCLVKGFYPSDIAVEWESNGQPENNYKTTPPVLDSDGSFFLYSKLTVGADRWLEGNVFSCSVMHEALHNHYTQKSLSLSPG
light: DIQMTQSPASLSASVGETVTITCRASGNIHNYLAWYQQKQGKSPQLLVYNAKTLADGVPSRFSGSGSGTQYSLKINSLQPEDFGSYYCQHFWSTPRTFGGGTKLEIKRTVAAPSVFIFPPSDEQLKSGTASVVCLLNNFYPREAKVQWKVDNALQSGNSQESVTEQDSKDSTYSLSSTLTLSKADYEKHKVYACEVTHQGLSSPVTKSFNRGEC
notes: Mock mAb^2, IgG1 without LALA
NF-kB luciferase reporter (HEK.FRT.luc.hCD137), signal with against without Protein L [7]: ≥ 10 fold | Kd (hCD137-mFc-Avi): 52 nM | Kd (cCD137-mFc-Avi): 203 nM

B3: FS22-172-003-AA/HelD1.3 (bispecific antibody, human IgG1, kappa, L234A L235A)
heavy: B2 heavy with L233A, L234A, R358P, K359Y, Y360I, Y361I
light: B2 light
notes: Mock mAb^2, IgG1 with LALA
EC50 (read off the curve) [5]: ~0.5 nM | EC50 (read off the curve) [8]: ~0.5 nM | EC50 (read off the curve) [6]: ~0.8 nM

B4: G1-AA/HelD1.3 (antibody, human IgG1, kappa, L234A L235A, V domains shown)
VH: QVQLQESGPGLVRPSQTLSLTCTVSGSTFSGYGVNWVRQPPGRGLEWIGMIWGDGNTDYNSALKSRVTMLVDTSKNQFSLRLSSVTAADTAVYYCARERDYRLDYWGQGSLVTVSS
VL: DIQMTQSPASLSASVGETVTITCRASGNIHNYLAWYQQKQGKSPQLLVYNAKTLADGVPSRFSGSGSGTQYSLKINSLQPEDFGSYYCQHFWSTPRTFGGGTKLEIKR
notes: Anti-hen egg lysozyme human IgG1 with the LALA mutation; also called G1-AA/HeID1.3; G1AA/HeID1.3 mAb (with LALA)
binding result [4]: no binding

Source: patent publication US20250084176A1 (F STAR BETA, published 2025)
